The source of these data is patent publication US20160040149A1, “Compositions Having Dicamba Decarboxylase Activity and Methods of Use” (priority 2013, published 2016).

Data set [1] in a line: Saturation mutagenesis of SEQ ID NO:109: dicamba decarboxylation activity of point mutants (CO2 released), fold of backbone (Tables 7, 8, Megatable 1). The settings on record: decarboxylation activity (CO2 released) of point mutant vs unmutated backbone protein.
The nature of data set [2]: DNA shuffling libraries: 14CO2 capturing assay in 384-well format, fold activity of backbone (Megatable 2). The settings on record: relative to backbone SEQ ID NO: 133 (DDEC0201).
Data set [3] can be described thus: Dicamba decarboxylase activity / product analysis with purified His-tag protein (14C assay and product detection of Example 1). It counts as biochemical. Here is the method:
To obtain purified protein for activity assays, IPTG-induced cells were harvested by centrifugation at 7,000 rpm for 10 mins Cell pellet from 50 mL of cell culture was frozen and thawed twice and then lysed in 8004 lysis buffer consisting of 50 mM potassium phosphate buffer (pH7.0), 50 μM ZnSO4, 5% EG, 50 mM KCl, 1 mM DTT, 0.2 mg/ml lysozyme, 1/200 protease inhibitor cocktail (EMD set3, EDTA free), and 1/2,000 endonuclease. Lysate was then centrifuged at 13,000 rpm for 45 min at 4° C. Supernatant was loaded onto 200 μL Ni-NTA columns pre-equilibrated with 10 mM His Buffer containing 25 mM potassium phosphate buffer pH7, 50 μM ZnSO4, 5% EG, 200 mM KCl, and 10 mM histidine. The columns were let sit at 4° C. until the entire supernatant passed through. Each column was then washed with 200 ul 10 mM His Buffer twice and then 4 times with 800 ul loading buffer consisting of 25 mM potassium phosphate buffer pH7, 50 μM ZnSO4, 5% EG, 200 mM KCl. Protein was eluted with 1504 of Elution Buffer consisting of 25 mM potassium phosphate buffer pH7, 50 μM ZnSO4, 5% EG, 100 mM KCl, 100 mM histidine, 10% glycerol. The protein concentration was measured by Bradford assay. Purified protein was used for dicamba decarboxylase activity measurement as described in Example 1. Enzyme kinetic characterization of selected dicamba decarboxylases was determined through GC/MS measurement of 2,5-DCP or PEPC coupled assay as described in Example 1.

B1: 260 (protein)
chain: MAQGKVALEEHFAIPETLQDSAGFVPGDYWKELQHRLLDIQDTRLKLMDAHGIETMILSLAAPAVQAIPDRRKAIEIARRANDFLAEECAKRPDRFLAFAALPMQDPDAASEELQRCVNDLGFVGALVNGFSVEGDGQTPLYYDLPQYRPFWGEVEKLDVPFYLHPRNPLPQDSRIYDGHPWLLGPTWAFAQETAVHALRLMASGLFDEHPRLNIILGHLGEGLPYMMYRIDHRIAWVKLPPRYPAKRRFMDYFNENFHITTSGNFRTQTLIDAILEIGADRILFSTDWPFENIDHAADWFNATSIAEADRVKIGRTNAPSSVQTG
modifications: Dicamba decarboxylase variant
Regarding B1, the entries for the “Fold Activity” value in data set [1] (backbone SEQ ID NO: 109) and in data set [2] were 1.7 fold and 1.5 fold, respectively.

B2: 111 (protein)
chain: MAQGKVALEEHFAIPETLQDSMGFVPGDYWKELMHRLLDIQDTRLKLMDAHGIETMILSLNAPAVQAIPDRRKAIEIARRANDVLAEECAKRPDRFLAFAALPLQDPDAATEELQRCVNDLGFVGALVNGFSQEGDGQTPLYYDLPQYRPFWGEVEKLDVPFYLHPRNPLPQDSRIYDGHPWLLGPTWAFAQETAVHALRLMASGLFDEHPRLNIILGHMGEGLPYMMWRIDHRMAWIKLPPRYPAKRRFMDYFNENFHITTSGNFRTQTLIDAILEIGADRILFSTDWPFENIDHASDWFNATSIAEADRVKIGRTNARRLFKLDGA
modifications: Dicamba decarboxylase variant clone: DC.4.112
Regarding B2, the “Fold Activity” value in data set [1] (backbone SEQ ID NO: 109) came to 1.2 fold. Further, in data set [3] (computationally designed variants), the “dicamba decarboxylase activity relative to parent sequence” value was “displays an increase in dicamba decarboxylase activity”. Further, the reaction products detected entry in data set [3] (purified protein, dicamba substrate) was “three major products (CO2, 4-chloro-3-methoxy phenol, and 2,5-DCP) detected”.

B3: 269 (protein)
chain: MAQGKVALEEHFAIPETLQDSAGFVPGDYWKELQHRLLDIQDTRLKLMDAHGIETMILSLAAPAVQAIPDRRKAIEIARRANDFLAEECAKRPDRFLAFAALPLQDPDAATEELQRCVNTLGFVGALVNGFSQEGDGQTPLYYDLPQYRPFWGEVEKLDVPFYLHPRNPLPQDSRIYDGHPWLLGPTWAFAQETAVHALRLMASGLFDEHPRLNIILGHMGEGLPYMMYRIDHRIAWVKLPPRYPAKRRFMDYFLENFHITTSGNFRTQTLIDAILEIGADRILFSTDWPFENIDHAADWFNATSIAEADRVKIGRTNARRLFKLDGA
modifications: Dicamba decarboxylase variant
As for B3, the “Fold Activity” value in data set [1] (backbone 509) and in data set [2] was 1.1 fold throughout.

B4: 261 (protein)
chain: MAQGKVALEEHFAIPETLQDSAGFVPGDYWKELQHRLLDIQDTRLKLMDAHGIETMILSLAAPAVQAIPDRVEAIEIARRANDFLAEECAKRPDRFLAFAALPLQDPDAATEELQRCVNDLGFVGALVNGFSQEGDGQTPLYYDLPQYRPFWGEVEKLDVPFYLHPRNPLPQDSRIYDGHPWLLGPTWAFAQETAVHALRLMASGLFDEHPRLNIILGHMGEGLPYMMYRIDHRIAWVHEPPRYPAKRRFMDYFNENFHITTSGNFRTQTLIDAILEIGADRILFSTDWPFENIDHAADWFNATSIAEADRVKIGRTNARRLFKLDGA
modifications: Dicamba decarboxylase variant
Regarding B4, the “Fold Activity” value in data set [1] (backbone SEQ ID NO: 109) was found to be 2.3 fold; in data set [2], 1.2 fold.

B5: 264 (protein)
chain: MAQGKVALEEHFAIPETLQDSAGFVPGDYWKELQHRLLDIQDTRLKLMDAHGIETMILSLAAPAVQAIPDRRKAIEIARRANDFLAEECAKRPDRFLAFAALPLQDPDAATEELQRCVNTLGFVGALVNGFSVEGDGQTPLYYDLPQYRPFWGEVEKLDVPFYLHPRNPLPQDSRIYDGHPWLLGPTWAFAQETAVHALRLMASGLFDEHPRLNIILGHMGEGLPYMMYRIDHRIAWVHEPPRYPAKRRFMDYFNENFHITTSGNFRTQTLIDAILEIGADRILFSTDWPFENIDHAADWFNATSIAEADRLKIGRTNARRLFKLDGD
modifications: Dicamba decarboxylase variant
Take B5: the “Fold Activity” value was 1.6 fold in data set [1] (backbone SEQ ID NO: 109) and 1.1 fold in data set [2].

B6: 266 (protein)
chain: MAQGKVALEEHFAIPETLQDSAGFVPGDYWKELQHRLLDIQDTRLKLMDAHGIETMILSLAAPAVQAIPDRRKAIEIARRANDFLAEECAKRPDRFLAFAALPLQDPDAATEELQRCVNTLGFVGALVNGFSQEGDGQTPLYYDLPQYRPFWGEVEKLDVPFYLHPRNPLPQDSRIYDGHPWLLGPTWAFAQETAVHALRLMASGLFDEHPRLNIILGHLGEGLPYMMYRIDHRIAWVHEPPRYPAKRRFMDYFNENFHITTSGNFRTQTLIDAILEIGADRILFSTDWPFENIDHAADWFNATSIAEADRLKIGRTNARRLFKLDGA
modifications: Dicamba decarboxylase variant
B6: the “Fold Activity” value worked out at 1.2 fold in data set [1] (backbone 509) and 1.3 fold in data set [2].

B7: 268 (protein)
chain: MAQGKVALEEHFAIPETLQDSAGFVPGDYWKELQHRLLDIQDTRLKLMDAHGIETMILSLAAPAVQAIPDRRKAIEIARRANDFLAEECAKRPDRFLAFAALPLQDPDAASEELQRCVNTLGFVGALVNGFSVEGDGQTPLYYDLPQYRPFWGEVEKLDVPFYLHPRNPLPQDSRIYDGHPWLLGPTWAFAQETAVHALRLMASGLFDEHPRLNIILGHMGEGLPYMMYRIDHRIAWVHEPPRYPAKRRFMDYFNENFHITTSGNFRTQTLIDAILEIGADRILFATDWPFENIDHAADWFNATSIAEADRVKIGRTNARRLFKLDLD
modifications: Dicamba decarboxylase variant
Regarding B7, the “Fold Activity” value is recorded as 1.1 fold in data set [1] (backbone 509) and 1.3 fold in data set [2].

B8: 265 (protein)
chain: MAQGKVALEEHFAIPETLNDSAGFVPGDYWKELQHRLLDIQDTRLKLMDAHGIETMILSLAAPAVQAIPDRRKAIEIARRANDFLAEECAKRPDRFLAFAALPLQDPDAATEELQRTVNDLGFVGALVNGFSQEGDGQTPLYYDLPQYRPFWGEVEKLDVPFYLHPRNPLPQDSRIYDGHPWLLGPTWAFAQETAVHALRLMASGLFDEHPRLNIILGHMGEGLPYMMYRIDHRIAWVKLPPRYPAKRRFMDYFNENFHITTSGNFRTQTLIDAILEIGADRILFSTDWPFENIDHAADWFNATSIAEADRLKIGRTNARRLFKLDLD
modifications: Dicamba decarboxylase variant
For B8, the figures for the “Fold Activity” value in data set [1] (backbone SEQ ID NO: 109) and in data set [2] were 1.8 fold and 1.0 fold, respectively.

B9: 262 (protein)
chain: MAQGKVALEEHFAIPETLNDSAGFVPGDYWKELQHRLLDIQDTRLKLMDAHGIETMILSLAAPAVQAIPDRRKAIEIARRANDFLAEECAKRPDRFLAFAALPLQDPDAATEELQRCVNDLGFVGALVNGFSQEGDGQTPLYYDLPQYRPFWGEVEKLDVPFYLHPRNPLPQDSRIYDGHPWLLGPTWAFAQETAVHALRLMASGLFDEHPRLNIILGHLGEGLPYMMYRIDHRIAWVHPPPRYPAKRRFMDYFNENFHITTSGNFRTQTLIDAILEIGADRILFSTDWPFENIDHATDWFNATSIAEADRVKIGRTNARRLFKLDGD
modifications: Dicamba decarboxylase variant
Consider B9, for which the “Fold Activity” value amounted to 3 fold in data set [1] (backbone SEQ ID NO: 109) and 1.2 fold in data set [2].

B10: 267 (protein)
chain: MAQGKVALEEHFAIPETLQDSAGFVPGDYWKELQHRLLDIQDTRLKLMDAHGIETMILSLAAPAVQAIPDRVQAIEIARRANDFLAEECAKRPDRFLAFAALPLQDPDAATEELQRCVNDLGFVGALVNGFSQEGDGQTPLYYDLPQYRPFWGEVEKLDVPFYLHPRNPLPQDSRIYDGHPWLLGPTWAFAQETAVHALRLMASGLFDEHPRLNIILGHMGEGLPYMMYRIDHRIAWVHEPPRYPAKRRFMDYFNENFHITTSGNFRTQTLIDAILEIGADRILFSTDWPFENIDHAADWFNATSIAEADRVKIGRTNARRLFKLDGD
modifications: Dicamba decarboxylase variant
For the molecule B10, the “Fold Activity” value in data set [1] (backbone 509) came to 1.0 fold; in data set [2] it was 2.2 fold.

B11: 263 (protein)
chain: MAQGKVALEEHFAIPATLNDSAGFVPGDYWKELQHRLLDIQDTRLKLMDAHGIGTMILSLAAPAVQAIPDRRKAIEIARRANDFLAEECAKRPDRFLAFAALPLQDPDAASEELQRCVNDLGFVGALVNGFSVEGDGQTPLYYDLPQYRPFWGEVEKLDVPFYLHPRNPLPQDSRIYDGHPWLLGPTWAFAQETAVHALRLMASGLFDEHPRLNIILGHMGEGLPYMMYRIDHRIAWVHEPPRYPAKRRFMDYFLENFHITTSGNFRTQTLIDAILEIGADRILFSTDWPFENIDHAADWFNATSIAEADRVKIGRTNARRLFKLDGD
modifications: Dicamba decarboxylase variant
Consider B11, for which the “Fold Activity” value in data set [1] (backbone SEQ ID NO: 109) is given as 2.2 fold; in data set [2], 0.9 fold.
